Results on three molecules are retold here after patent US20080213256A1 (MICROMET, published 2008).

The target in assay [1] is human CD3 complex (human, UniProt P07766 23-207; P04234 22-171; P09693 23-182). The assay is described as follows: cell-based or functional assay.
The target in assay [2] is T1, CD19 (human, UniProt P15391 20-556).
T1 construct: whole, on cells; also called CD19 on CD19 positive Nalm 6 cells; NALM-6
T1 sequence (looked up): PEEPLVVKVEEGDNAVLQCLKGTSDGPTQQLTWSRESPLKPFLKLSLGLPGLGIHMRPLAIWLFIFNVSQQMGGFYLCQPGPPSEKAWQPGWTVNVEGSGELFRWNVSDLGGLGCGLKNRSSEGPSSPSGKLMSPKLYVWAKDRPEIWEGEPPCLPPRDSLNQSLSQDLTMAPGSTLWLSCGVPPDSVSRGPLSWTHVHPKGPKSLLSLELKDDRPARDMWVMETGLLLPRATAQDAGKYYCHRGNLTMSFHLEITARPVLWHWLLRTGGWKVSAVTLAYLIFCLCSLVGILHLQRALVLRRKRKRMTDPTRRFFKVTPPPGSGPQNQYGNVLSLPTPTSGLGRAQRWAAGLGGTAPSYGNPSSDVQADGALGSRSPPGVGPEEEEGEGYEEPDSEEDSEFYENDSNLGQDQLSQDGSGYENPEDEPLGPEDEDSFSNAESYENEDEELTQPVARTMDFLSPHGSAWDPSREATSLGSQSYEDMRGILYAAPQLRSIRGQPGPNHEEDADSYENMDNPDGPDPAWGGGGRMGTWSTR
Briefly: FACS on Nalm6 cells, detection via His tag. On the procedure: CD19 positive Nalm 6 cells (human B cell precursor leukaemia) and CD3 positive Jurkat cells (human T cell leukemia) were used. 200,000 Nalm 6 cells and 200,000 Jurkat cells were incubated with 50 μl the pure cell culture supernatant of CHO cells transfected with the anti-CD19xhum. anti-CD3 specific polypeptide for 30 min on ice. The cells were washed twice in PBS. Then the binding of the construct was detected via its C-terminal Histidin Tag with a murine Penta H is antibody (diluted 1:20 in 50 μl PBS with 2% FCS; Qiagen) followed by a washing step and a Phycoerythrin conjugated Fc gamma specific antibody (Dianova), diluted 1:100 in 50 μl PBS with 2% FCS (FIG. 2A, thick line). As negative control fresh cell culture medium instead of cell culture supernatant was used (FIG. 2, thin line).
Cells were analysed by flow cytometry on a FACS-Calibur (Becton Dickinson, Heidelberg). FACS staining and measuring of the fluorescence intensity were performed as described in Current Protocols in Immunology (Coligan, Kruisbeek, Margulies, Shevach and Strober, Wiley-Interscience, 2002). The binding activity of the bispecific binding molecule was compared to the binding activity of the corresponding control bispecific antibody with the humanized OKT3 part as described in prior art.

The target of assay [3] is T2, EpCAM (UniProt P16422 24-314, limits assumed).
T2 construct: whole, on cells; also called EpCAM on EpCAM positive Kato III cells
T2 sequence (looked up): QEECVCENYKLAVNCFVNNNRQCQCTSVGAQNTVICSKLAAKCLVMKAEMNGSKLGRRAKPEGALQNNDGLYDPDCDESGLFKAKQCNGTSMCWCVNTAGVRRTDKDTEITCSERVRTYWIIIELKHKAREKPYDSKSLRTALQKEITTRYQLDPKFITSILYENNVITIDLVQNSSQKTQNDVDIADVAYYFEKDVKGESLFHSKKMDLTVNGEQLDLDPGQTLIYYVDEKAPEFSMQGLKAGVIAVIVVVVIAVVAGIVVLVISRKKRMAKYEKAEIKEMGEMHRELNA
Briefly: FACS on KatoIII cells, detection via His tag.

The target in assay [4] is T2, EpCAM. The assay is described as follows: FACS on Kato III cells, CHO supernatant (FIG. 2C).

B1: bispecific anti-CD19xhum. anti-CD3 antibody construct (SEQ ID NO.: 20) (bispecific antibody)
chain: DIQLTQSPASLAVSLGQRATISCKASQSVDYDGDSYLNWYQQIPGQPPKLLIYDASNLVSGIPPRFSGSGSGTDFTLNIHPVEKVDAATYHCQQSTEDPWTFGGGTKLEIKGGGGSGGGGSGGGGSQVQLQQSGAELVRPGSSVKISCKASGYAFSSYWMNWVKQRPGQGLEWIGQIWPGDGDTNYNGKFKGKATLTADESSSTAYMQLSSLASEDSAVYFCARRETTTVGRYYYAMDYWGQGTTVTVSSGGGGSQVQLVQSGGGVVQPGRSLRLSCKSSGYTFTRYTMHWVRQAPGKGLEWIGYINPSRGYTNYNQKVKDRFTISRDNSKNTAFLQMDSLRPEDTGVYFCARYYDDHYCLDYWGQGTPVTVSSVEGGSGGSGGSGGSGGVDDIQMTQSPSSLSASVGDRVTITCRASSSVSYMNWYQQTPGKAPKRWIYDTSKVASGVPSRFSGSGSGTDYTFTISSLQPEDIATYYCQQWSSNPLTFGQGTKLQIT
notes: Bispecific single chain Fv made in CHO cells; FACS used raw culture supernatant; the cytotoxicity assay used purified protein; also called anti-CD19xhum. anti-CD3 (improved hum. OKT3); bispecific humanized improved CD3 (hum. anti-CD3)
As to B1, the “cytotoxic activity (EC50), calcein release from NALM-6 target cells with CD4-positive CB15 T-cells” value in assay [1] was 0.05 ng/mL. Besides, the binding result in assay [2] was “binds”.

B2: bispecific anti-EpCAM (3-1)x hum. anti-CD3 antibody construct (SEQ ID NO.: 34) (bispecific antibody)
chain: ELVMTQSPSYLAASPGETITINCRASKSISKYLAWYQEKPGKTNKLLIYSGSTLQSGIPSRFSGSGSGTDFTLTISSLEPEDFAMYYCQQHNEYPYTFGGGTKLEIKGGGGSGGGGSGGGGSEVQLLEQSGAELVKPGASVKISCKASGYAFTNYWLGWVKQRPGHGLEWIGDLFPGSGNTHYNERFRGKATLTADKSSSTAFMQLSSLTSEDSAVYFCARLRNWDEAMDYWGQGTTVTVSSGGGGSQVQLVQSGGGVVQPGRSLRLSCKSSGYTFTRYTMHWVRQAPGKGLEWIGYINPSRGYTNYNQKVKDRFTISRDNSKNTAFLQMDSLRPEDTGVYFCARYYDDHYCLDYWGQGTPVTVSSVEGGSGGSGGSGGSGGVDDIQMTQSPSSLSASVGDRVTITCRASSSVSYMNWYQQTPGKAPKRWIYDTSKVASGVPSRFSGSGSGTDYTFTISSLQPEDIATYYCQQWSSNPLTFGQGTKLQIT
notes: Bispecific single chain Fv, tested as CHO culture supernatant
In the case of B2, in assay [3], the binding result is “binds”.

B3: bispecific anti-EpCAM (5-10)x hum. anti-CD3 antibody construct (SEQ ID NO.: 36) (bispecific antibody)
chain: ELVMTQSPSSLTVTAGEKVTMSCKSSQSLLNSGNQKNYLTWYQQKPGQPPKLLIYWASTRESGVPDRFTGSGSGTDFTLTISSVQAEDLAVYYCQNDYSYPLTFGAGTKLEIKGGGGSGGGGSGGGGSEVQLLEQSGAELVRPGTSVKISCKASGYAFTNYWLGWVKQRPGHGLEWIGDIFPGSGNIHYNEKFKGKATLTADKSSSTAYMQLSSLTFEDSAVYFCARLRNWDEPMDYWGQGTTVTVSSGGGGSQVQLVQSGGGVVQPGRSLRLSCKSSGYTFTRYTMHWVRQAPGKGLEWIGYINPSRGYTNYNQKVKDRFTISRDNSKNTAFLQMDSLRPEDTGVYFCARYYDDHYCLDYWGQGTPVTVSSVEGGSGGSGGSGGSGGVDDIQMTQSPSSLSASVGDRVTITCRASSSVSYMNWYQQTPGKAPKRWIYDTSKVASGVPSRFSGSGSGTDYTFTISSLQPEDIATYYCQQWSSNPLTFGQGTKLQIT
notes: as for B2
As for B3, the binding result in assay [4] is “binds”.
